From EP3446126B1 (Université Libre de Bruxelles, dated 2024)

Target: human DPP6 protein (as used in the affinity analysis) (human, UniProt P42658 117-865, limits assumed)
Experiment: affinity analysis versus human DPP6 protein; method not stated

Chain of human DPP6 protein (as used in the affinity analysis) (P42658 117-865 limits assumed): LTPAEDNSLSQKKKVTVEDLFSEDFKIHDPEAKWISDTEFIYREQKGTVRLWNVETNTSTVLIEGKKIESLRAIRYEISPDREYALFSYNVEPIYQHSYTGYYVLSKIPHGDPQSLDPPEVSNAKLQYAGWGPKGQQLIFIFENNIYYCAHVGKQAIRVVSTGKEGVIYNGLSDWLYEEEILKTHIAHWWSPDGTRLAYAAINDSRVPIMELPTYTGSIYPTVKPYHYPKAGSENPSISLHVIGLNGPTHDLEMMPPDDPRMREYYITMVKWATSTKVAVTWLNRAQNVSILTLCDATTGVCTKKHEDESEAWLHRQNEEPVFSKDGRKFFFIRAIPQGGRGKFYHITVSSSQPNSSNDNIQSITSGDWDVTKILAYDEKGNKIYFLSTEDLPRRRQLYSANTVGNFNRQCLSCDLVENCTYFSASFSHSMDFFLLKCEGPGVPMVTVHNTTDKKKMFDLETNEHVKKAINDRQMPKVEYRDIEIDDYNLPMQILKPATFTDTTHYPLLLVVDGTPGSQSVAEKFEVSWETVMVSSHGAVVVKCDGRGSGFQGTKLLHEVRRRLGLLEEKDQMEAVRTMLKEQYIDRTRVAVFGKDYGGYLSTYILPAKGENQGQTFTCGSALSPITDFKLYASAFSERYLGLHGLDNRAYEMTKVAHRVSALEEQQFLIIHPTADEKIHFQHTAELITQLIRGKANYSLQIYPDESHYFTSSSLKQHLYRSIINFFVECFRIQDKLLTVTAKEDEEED

B1: nanobody 4hD29 (VHH)
VHH: QVQLQESGGGLVQPGGSLRLSCAASGFTFSSNYMTWVRQAPGKGPEWVSGINPDGSSTYYADSVKGRFTISRDNAKNTLYLQMNSLKSEDTALYKCATGAAPRIPTTLRGQGTQVTVSS
notes: Dromedary nanobody from an immune phage display library; also called Nb 4hD29; 4hD29 Nb
- Kd: 1.2 nM
